# Source: patent US20210347882A1 (Johns Hopkins, published 2021)
# Where a chain is given by its changes, count along the chain named.
# T1: human Resistin (human, UniProt Q9HD89 19-108)
# T1 construct: The sandwich ELISA used the R&D kit standard; also called hResistin; huRes
# T1 sequence (looked up): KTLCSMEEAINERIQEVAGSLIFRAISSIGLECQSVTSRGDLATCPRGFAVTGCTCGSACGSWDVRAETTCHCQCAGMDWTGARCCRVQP
# T2: human Resistin-Like Molecule Beta (human, UniProt Q9BQ08 24-111, limits assumed)
# T2 construct: also called hRELMβ; RELMβ
# T2 sequence (looked up): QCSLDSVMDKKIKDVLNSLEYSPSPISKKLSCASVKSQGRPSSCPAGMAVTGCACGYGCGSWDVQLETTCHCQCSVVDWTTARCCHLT
# B1: Clone 1 rIgG (antibody, V domains shown)
# VH: EVQLLESGGGLVQPGGSLRLSCAASGFTFSSYAMSWVRQAPGKGLEWVSSISQRGRKTLYADSVKGRFTISRDNSKNTLYLQMNSLRAEDTAVYYCAKGLRRFDYWGQGTLVTVSS
# VL: DIQMTQSPSSLSASVGDRVTITCRASQSISSYLNWYQQKPGKAPKLLIYMASHLQSGVPSRFSGSGSGTDFTLTISSLQPEDFATYYCQQPRSTPLTFGQGTKVEIKR
# notes: Fully human IgG1 converted from scFv, tested as supernatant of expressing cells; Possibly the same clone as Ab1
# B2: Clone 18 rIgG (antibody, V domains shown)
# VH: B1 VH with S50T, S52H, Q53K, R54T, R56S, K57P, L59Y, G99S, R101K, R102Y
# VL: B1 VL with M50R, T94L, L96A
# notes: Fully human IgG1 converted from scFv, tested as supernatant of expressing cells
# B3: Clone 2 rIgG (antibody, V domains shown)
# VH: B1 VH with S50T, S52T, Q53T, R54T, R56T, K57A, L59W, G99T, R101Q
# VL: B1 VL with M50E, H53V, T94L, L96M
# notes: as for B2
# B4: Clone 13 rIgG (antibody, V domains shown)
# VH: B1 VH with S52Y, Q53P, R54Q, R56L, K57R, L59Y, G99N, R101A, R102K
# VL: B1 VL with M50R, H53T, S93A, T94L, L96G
# notes: Fully human IgG1 converted from scFv, tested as supernatant of expressing cells; Possibly the same clone as Ab13
# Target: T1, human Resistin
# Assay: QC ELISA, hResistin coated 5 µg/well, IgG supernatant, FITC-goat anti-human IgG
# Procedure: (§1) As a result, 4 IgGs (Clones 1, 2, 13 and 18) bind to two targets positively. hRELMβ: 0.5 μg/well; hResistin: 5 μg/well; secondary antibody: FITC-goat anti-human IgG pAb.
row,binding result,Binder
1,binds,B1
2,binds,B2
3,binds,B3
4,binds,B4

# Target: T2, human Resistin-Like Molecule Beta
# Assay: QC ELISA, hRELMβ coated 0.5 µg/well, IgG supernatant, FITC-goat anti-human IgG
# Procedure: as §1
row,binding result,Binder
1,binds,B1
2,binds,B2
3,binds,B3
4,binds,B4
